“Also recorded” adds a separate entry of the source.
Columns and labels:
[1] = test system: chick chorioallantoic membrane blood vessels; test: Proliferation of blood vessels on chick chorioallantoic membrane; type: in vivo
Experimental: In this example, a proliferation assay on chick chorioallantoic membrane blood vessels was carried out to detect the inhibition of F56 to angiogenesis.
The experiment was carried out according to a method described by Fu Shengfa et al. (Fu Shengfa, Lu Yinglin and Zhang Chaoshan: Technique of detecting the effects of vascular growth factor with chorioallantoic membrane of fertilized chicken eggs. Chin Mili. Acad. Medi. Scie. 1993, 17:294-97”). Particularly, fresh inseminated chicken eggs were soaked in 0.1% benzalkonium bromide solution for 2 minutes at 38° C., and incubated in an incubator at 37.5° C., 60-70% humidity for 3 days. Then, the eggs were stripped and cultured on a petri dish. When the allantoic membrane grew to about 1cm^2, the different groups (5 chick embryos per group) were treated with the following agents. VEGF165 (2 μg/L), DHFR (negative control) or 18 μl F56 solution (0.8 μg/μl) was dropped onto a glass-fiber filter membrane (Φ5 mm). The membrane was placed on the distal end (in relation to the heart of the embryo) of the chorioallantoic membrane. The agents were administered once in the morning and once in the evening for 2 days. The results were observed and recorded by photography. The experiment was repeated twice (Kodak 100, exposed for 3 s).

[2] = test system: human umbilical cord vein-derived endothelial cells (HUVECs); test: VEGF-stimulated proliferation of HUVECs (3H-TdR incorporation); type: cell-based; settings: 50, 100, 200, 300 μmol/L with VEGF165, 48 hours; FIG. 2
Experimental: A sample of human umbilical cord (obtained from Beijing Gynecological and Obstetric Hospital) was digested by 0.1% collagenase II (purchased from GIBCO BRL Corporation), and centrifuged at 1000 rpm for 10 minutes to collect the human umbilical cord vein-derived endothelial cells (HUVECs). The cells were suspended in 20% FCS/RPMI 1640 (purchased from GIBCO BRL Corporation), and transferred to a plastic culture flask and cultured in a incubator (37° C., 5% CO2) for 2 days. Then, the cultured HUVECs were digested with 0.04% trypsin-EDTA, and inoculated into a 24-well plate at 3×10^4 cells/well. After 24 hours' incubation, the cells were incubated for another 24 hours in new medium 2% FCS/RPIM 1640. VEGF165 (product of Sigma Corporation) was added either independently or as a mixture with peptide F56 or F90 of different concentrations (50, 100, 200, 300 μmol/L). 4 parallel wells were used for each group. The cells were incubated for 48 hours. Then, ^3H-TdR(1 μci/ml) was added and the cells were incubated for another 8 hours. The cells were collected to a glass-fiber filter membrane. The cpm value was detected according to conventional methods. The same experiment was repeated for 3 times.

[3] = test system: human breast cancer cells; test: Metastasis model of breast cancer in SCID mice; type: in vivo
Experimental: In order to observe the inhibitory activity of the peptides of the present invention to cancer metastasis, a metastasis model of breast cancer in SCID mice as described by Li Zhihong at al. (Transplant of human breast cancer in nude mice. Natl. Med J Chin. Vol.80 (11), 2000) was used to determine the function of F56. Briefly, human breast cancer cells were inoculated under the fat pad in the breast of SCID mice. Peptide F56 (0.5 mmol/L) was injected topically (60 μl per mouse per time) on the next day and every other day for 10 times in total. After 8 weeks, the mice were put to dead. The tumors were taken out and weighted. The whole lung was taken out, fixed and sliced with maximal cross-section and dyed by HE. The number of metastatic foci was counted.

[4] = test system: MGC803 cells (a human gastric carcinoma cell line); test: Tumor inhibition test, MGC803 implanted in Balb/c nude mice; type: in vivo; settings: 150 μg/100 μl intraperitoneally every other day for 10 times; for growth of human gastric carcinoma MGC803 cells in Balb/c nude mice: p<0.05 vs DHFR control
Experimental: To testify whether DHFR-F56 and DHFR-F90 can inhibit tumor growth on the basis of anti-angiogenesis, a tumor inhibition test on Balb/c nude mice was performed.
MGC803 cells (a human gastric carcinoma cell line) was subcutaneously implanted on the right buttock of eight 5-week aged nude mice (purchased from the Animal Center of the Chinese Academy of Medical Sciences) (2×10^6 cells/0.1 ml/each mouse). On the fifth day after the implantation, the nude mice were grouped at random into […] each of which included 4 mice. DHFR (150 μg/100 μl per time), DHFR-F56 or DHFR-F90 (150 μg/100 μl per time) was injected intraperitoneally every other day for 10 times. […] The major and minor axes of the tumors were measured by vernier caliper every three days during the observation period. The volume of the tumor was calculated according to the formula of ½×major axis×minor axis^2. After the 30 days, the nude mice were put to dead by neck-breaking. The tumors were weighted and analyzed statistically.

[5] = target: T1, sFlt-1 (Homo sapiens, UniProt P17948); test: ELISA test of binding specificity to soluble receptor sFlt-1; settings: for binding to Flt-1 (in words): ELISA; for ELISA (OD492 nm), SFlt-1: plate coated with sFlt-1 5 mg/L, detection with DHFR-specific monoclonal antibody
T1 construct: made in house
Experimental: (§1) The specificity of the binding of the fusion proteins DHFR-F56 and DHFR-F90 to receptor Flt-1 was tested by ELISA in the present example.
(§2) Particularly, a 96-well plate was coated with soluble receptors, sFlt-1, sKDR (5 mg/L, 50 μl/well) [Song Shumei, Shou Chengchao: Molecular cloning and its expression of vascular endothelia growth factor receptor KDR. Chin J. Biochem. Mol. Bio. 1998, 14 (1): 57-61; An Ping, Dong Zhewei and Shou Chengchao: Molecular cloning and its bio-activity of soluble VEGF receptor expressed in bacterial. Chin J. Biochem. Mol. Bio. 2000, 16 (1): 62-66]. Alternatively, the vascular endothelial cells in a 96-well plate were fixed by pre-cooled 0.125% glutaraldehyde solution. DHFR, DHFR-F56 or DHFR-F90 was added to the plate after blocking. An ELISA assay was carried out using a DHFR-specific monoclonal antibody according to conventional method. The ELISA assay was repeated for 3 times.

[6] = test system: vascular endothelial cells; test: ELISA test of binding to fixed vascular endothelial cells; settings: for binding to endothelial cells (in words): ELISA; for ELISA (OD492 nm), EC: glutaraldehyde-fixed vascular endothelial cells, DHFR-specific monoclonal antibody
Experimental: as §1, §2

[7] = target: T2, soluble receptor of VEGF, Flt-1 (sFlt-1) (Homo sapiens, UniProt P17948); test: 125I-VEGF competitive binding assay on coated sFlt-1; settings: 1, 5, 10, 15, 20 μg/ml; 125I-VEGF 2 μg/L; FIG. 1
T2 construct: coated overnight at 4° C. by 0.5 mg/L soluble receptor of VEGF, Flt-1 (sFlt-1)
Experimental: In order to detect the activity of DHFR-F56 blocking VEGF binding to sFlt-1, a binding assay was carried out using ^125I-VEGF (purchased from Life Technology Inc.).
The experiment was carried out according to a method substantially as described by Tanaka, K., et al (Characterization of the extracellular domain in vascular endothelial growth factor receptor-1 (Flt-1 tyrosine kinase). Jpn J Cancer Res. 1997, 88:867-876). Briefly, a 96-well plate was coated overnight at 4° C. by 0.5 mg/L soluble receptor of VEGF, Flt-1 (sFlt-1). The coating solution was 0.01 mol/L phosphate buffer (pH 6.2). Then, the plate was rinsed with a washing solution (0.9% NaCl, 0.01 mol/L, pH6.2) for 3 times. 250 μl blocking buffer (0.3% BSA, 25 mmol/L HEPES, DMEM, pH7.6) was added into each well for 3 hours at room temperature. DHFR-F56 of different concentrations (1, 5, 10, 15, 20 μg/ml) (DHFR of different concentrations for the control group) and ^125I-VEGF (purchased from Life Technology Inc.) of fixed concentration (2 μg/L, […]) were added to the wells. 2 parallel wells were used for each concentration. The binding reaction underwent for 1 hour at room temperature. The plate was rinsed 4 times with the binding buffer. […] The cpm value was determined by a Wallac co liquid-scintillation counter after the solid residue had been dissolved.

[8] = target: T3, sKDR (Homo sapiens, UniProt P35968); test: ELISA test of binding specificity to soluble receptor sKDR; settings: for reaction with KDR (in words): ELISA; for ELISA (OD492 nm), SKDR: plate coated with sKDR 5 mg/L, detection with DHFR-specific monoclonal antibody
T3 construct: made in house
Experimental: as §1, §2

[9] = on filter membrane, twice daily for 2 days, FIG. 3
[10] = 0.5 mmol/L 60 μl topically, 10 times
[11] = lung, 0.5 mmol/L 60 μl topically, 10 times, after 8 weeks

T3 sequence (P35968 20-764 limits assumed): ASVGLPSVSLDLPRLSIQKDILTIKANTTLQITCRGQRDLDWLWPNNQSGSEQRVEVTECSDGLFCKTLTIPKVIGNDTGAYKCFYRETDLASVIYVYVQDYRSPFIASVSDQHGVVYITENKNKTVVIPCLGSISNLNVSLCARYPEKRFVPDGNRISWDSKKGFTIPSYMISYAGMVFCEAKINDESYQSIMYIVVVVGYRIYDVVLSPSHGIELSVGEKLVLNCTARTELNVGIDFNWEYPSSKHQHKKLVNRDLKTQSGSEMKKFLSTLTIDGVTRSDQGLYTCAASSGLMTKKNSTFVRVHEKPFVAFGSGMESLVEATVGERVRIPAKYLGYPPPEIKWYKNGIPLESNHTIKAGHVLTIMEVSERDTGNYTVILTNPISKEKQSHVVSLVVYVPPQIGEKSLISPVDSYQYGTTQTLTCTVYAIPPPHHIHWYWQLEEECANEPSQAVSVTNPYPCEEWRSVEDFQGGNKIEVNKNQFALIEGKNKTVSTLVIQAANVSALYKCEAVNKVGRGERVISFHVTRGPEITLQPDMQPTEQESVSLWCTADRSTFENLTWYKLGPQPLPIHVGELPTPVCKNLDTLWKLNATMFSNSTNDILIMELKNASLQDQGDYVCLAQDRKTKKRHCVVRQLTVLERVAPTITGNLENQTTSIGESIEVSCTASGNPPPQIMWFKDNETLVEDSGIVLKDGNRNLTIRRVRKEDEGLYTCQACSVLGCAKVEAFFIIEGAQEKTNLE
T1 sequence (P17948 27-758 limits assumed, species assumed): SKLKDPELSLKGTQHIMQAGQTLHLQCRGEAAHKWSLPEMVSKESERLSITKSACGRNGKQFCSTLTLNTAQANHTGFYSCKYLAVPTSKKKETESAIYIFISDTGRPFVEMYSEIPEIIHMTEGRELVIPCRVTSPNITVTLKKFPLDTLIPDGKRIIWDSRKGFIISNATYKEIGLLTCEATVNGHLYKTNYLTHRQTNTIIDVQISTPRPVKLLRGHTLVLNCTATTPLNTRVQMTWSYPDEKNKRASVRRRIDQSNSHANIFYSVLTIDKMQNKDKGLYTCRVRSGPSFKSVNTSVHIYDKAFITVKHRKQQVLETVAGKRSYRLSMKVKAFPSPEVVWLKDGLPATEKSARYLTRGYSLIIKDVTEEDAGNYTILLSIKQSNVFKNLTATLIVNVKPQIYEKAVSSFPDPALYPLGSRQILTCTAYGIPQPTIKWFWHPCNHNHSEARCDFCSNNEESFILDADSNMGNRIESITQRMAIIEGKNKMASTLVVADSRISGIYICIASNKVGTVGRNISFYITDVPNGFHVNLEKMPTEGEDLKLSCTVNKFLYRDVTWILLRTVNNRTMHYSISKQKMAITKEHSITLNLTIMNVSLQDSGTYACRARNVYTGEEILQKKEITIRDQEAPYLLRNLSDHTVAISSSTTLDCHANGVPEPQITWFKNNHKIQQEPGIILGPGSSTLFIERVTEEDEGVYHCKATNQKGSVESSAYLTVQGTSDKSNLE
T2 sequence (P17948 27-758 limits assumed, species assumed): as above

## H2N-Trp-His-Asp-Pro-Thr-Pro-Trp-Trp-Ser-Trp-Glu-Ile-COOH (H-WHDPTPWWSWEI-OH) [Peptide F90]
[1]; [9]
  effect on chick chorioallantoic membrane blood vessels: derangeable in distribution and atrophic
[2]
  inhibition to the proliferation of umbilical cord vein-derived endothelial cells: no significant inhibition

## H2N-Trp-His-Ser-Asp-Met-Glu-Trp-Trp-Tyr-Leu-Leu-Gly-COOH (H-WHSDMEWWYLLG-OH) [Peptide F56]
[3]; [10]
  cancer metastasis to lung (in words): significantly inhibit cancer metastasis to lung
  tumor growth on the injection sites (in words): inhibition of tumor growth on the injection sites
[3]; [11]
  Number of metastatic foci in each mouse, mouse 1: 0
  Number of metastatic foci in each mouse, mouse 2: 0
  Number of metastatic foci in each mouse, mouse 3: 1
  Number of metastatic foci in each mouse, mouse 4: 2
  Number of metastatic foci in each mouse, mouse 5: 2
[3]; lung, 5 mice, after 8 weeks
  Mean number of metastatic foci: 1.0
  Total number of metastatic foci: 5
[3]; lung, versus solvent, after 8 weeks
  Metastasis inhibition (%): 70.5%
[1]; [9]
  effect on chick chorioallantoic membrane blood vessels: rupture of blood vessels and bleeding in addition to blood vessel atrophy; also recorded: derangeable in distribution and atrophic
[2]
  inhibition to the proliferation of umbilical cord vein-derived endothelial cells: no significant inhibition

## VEGF [reference compound]
[1]; in vivo
  effect on chick chorioallantoic membrane blood vessels: can promote the proliferation; also recorded: stimulated the blood vessels to proliferate significantly

B1: DHFR-F56: fusion protein composed of peptide F56 and dihydrofolate reductase, expressed in E. coli M15 (protein)
chain: MVRPLNCIVAVSQNMGIGKNGDLPWPPLRNEFKYFQRMTTTSSVEGKQNLVIMGRKTWFSIPEKNRPLKDRINIVLSRELKEPPRGAHFLAKSLDDALRLIEQPELASKVDMVWIVGGSSVYQEAMNQPGHLRLFVTRIMQEFESDTFFPEIDLGKYKLLPEYPGVLSEVQEEKGIKYKFEVYEKKWHSDMEWWYLLG
[4]; FIG. 4
  necrosis of tumor: result in necrosis of tumor
[4]
  growth of human gastric carcinoma MGC803 cells in Balb/c nude mice: can inhibit the growth
[5]
  binding to Flt-1 (in words): can bind
  ELISA (OD492 nm), SFlt-1: 0.529
[6]
  binding to endothelial cells (in words): can bind
  ELISA (OD492 nm), EC: 0.477
[7]
  binding of 125I-VEGF to coated sFlt-1: decreases along with the increase of the concentration of DHFR-F56
[8]
  reaction with KDR (in words): no notable reaction
  ELISA (OD492 nm), SKDR: 0.081

B2: DHFR-F90: fusion protein composed of peptide F90 and dihydrofolate reductase, expressed in E. coli M15 (protein)
chain: MVRPLNCIVAVSQNMGIGKNGDLPWPPLRNEFKYFQRMTTTSSVEGKQNLVIMGRKTWFSIPEKNRPLKDRINIVLSRELKEPPRGAHFLAKSLDDALRLIEQPELASKVDMVWIVGGSSVYQEAMNQPGHLRLFVTRIMQEFESDTFFPEIDLGKYKLLPEYPGVLSEVQEEKGIKYKFEVYEKKWHDPTPWWSWEI
[4]
  growth of human gastric carcinoma MGC803 cells in Balb/c nude mice: can inhibit the growth
[5]
  binding to Flt-1 (in words): can bind
  ELISA (OD492 nm), SFlt-1: 0.415
[6]
  binding to endothelial cells (in words): can bind
  ELISA (OD492 nm), EC: 0.384
[8]
  reaction with KDR (in words): no notable reaction
  ELISA (OD492 nm), SKDR: 0.074

B3: dihydrofolate reductase (protein)
chain: MVRPLNCIVAVSQNMGIGKNGDLPWPPLRNEFKYFQRMTTTSSVEGKQNLVIMGRKTWFSIPEKNRPLKDRINIVLSRELKEPPRGAHFLAKSLDDALRLIEQPELASKVDMVWIVGGSSVYQEAMNQPGHLRLFVTRIMQEFESDTFFPEIDLGKYKLLPEYPGVLSEVQEEKGIKYKFEVYEKK
notes: dihydrofolate reductase, negative control protein
[5]
  binding to Flt-1 (in words): no reaction
  ELISA (OD492 nm), SFlt-1: 0.088
[6]
  binding to endothelial cells (in words): no reaction
  ELISA (OD492 nm), EC: 0.080
[1]; [9]
  effect on chick chorioallantoic membrane blood vessels: no notable effect
[7]
  binding of 125I-VEGF to coated sFlt-1: no notable effect
[8]
  reaction with KDR (in words): no reaction
  ELISA (OD492 nm), SKDR: 0.074

From patent US7250395B2, “Antagonist peptides to VEGF receptor Flt-1” (Beijing Institute for Cancer Research, priority 2001, dated 2007)
